The source of these data is patent US6667173B2, “Nucleic acids encoding platelet derived growth factor-alpha receptors” (The Schepens Eye Research Institute, priority 2000, dated 2003).

Data set [1] relates to F cells. The data set is described as follows: Collagen gel contraction assay of F cells expressing αPDGFR mutants. Format: cell-based, mouse. The following applies: PDGF-BB (50 ng/ml), 48 hours. The protocol: The contraction assay was based on a previously described reference, Skuta, G. et al. (1999) J. Biol. Chem. 274:30163, with the following modifications. Fα cells were suspended in 1.5 mg/ml of neutralized collagen I (Cohesion vitrogen 100, Palo Alto, Calif.) at a density of 10^6 cells/ml, and were transferred into the 24-well plate (Falcon, Franklyn Lakes, N.J.) that had been preincubated with phosphate-buffer saline (PBS) with 5 mg/ml of bovine serum albumin (BSA) overnight. The gel was solidified by incubating at 37° C. for 90 minutes, and then the well was flooded with DMEM+5 mg/ml of BSA supplemented with an amount of vitreous such that the final concentration of vitreous in the culture medium was 1, 5 or 20%. The gels were incubated at 37° C. with 5% CO2. The initial gel diameter was 15 mm. The media was replaced every 24 hours and the gel diameter was measured after 48 hours. The extent of contraction was calculated by subtracting the diameter of the well at 48 hours from the initial diameter (15 mm). Each experimental condition was assayed in triplicate, and at least three independent experiments were performed. Unpaired t-test was performed to detect statistic difference in contraction assay.
To determine the signaling pathways that drive contraction, cells expressing the αPDGFR mutants were subjected to the collagen gel contraction assay described above. Accordingly, F cells expressing the indicated αPDGFRs were subjected to the collagen gel assay in the presence of buffer, PDGF-BB (50 ng/ml), TGFβ1 (1 ng/ml), or FBS (10%). The data presented are the mean±standard deviation measured at the 48 hours time point. Each experimental condition was assayed in triplicate, and at least 3 independent experiments were performed.

Data set [2] deals with rabbit eyes. In words: Rabbit PVR model: F cells expressing αPDGFR mutants injected into the vitreous. The data set is classed as in vivo. Particulars: for potential to induce PVR (PVR score): up to 28 days after the surgery. The protocol:
PVR was induced in the rabbit eyes as previously described (Andrews, A. et al. (1999) Invest. Ophthalmol. Vis. Sci. 40:2683 and Nakagawa, M. et al. (1995) Invest. Ophthalmol. Vis. Sci. 36:2388). Briefly, gas vitrectomy was performed by injecting 0.4 ml of expanding perfluoropropane gas (C3F8) into the vitreous cavity 4 mm posterior to the corneal limbus under anesthetical condition. Three days later, the rabbits were anesthetized and the pupils were dilated. 0.1 ml DMEM containing 1×10^5 of RCFs expressing empty vector or αPDGFR mutant were injected into the vitreous cavity together with 0.1 ml of PRP using 30 G needle. Ten rabbits underwent surgery for each cell population expressing the empty vector or the truncated, E587K, T665M, D818N, or V859M αPDGFR mutants. One rabbit in the D818N group died just after the surgery, therefore the total number is 9 for this group. The retinal status was evaluated with an indirect ophthalmoscope fitted with a +30 D fundus lens at 1, 4, 7, 14, 21, and 28 days after the surgery. The PVR was graded from 0 through 5 according to the Fastenberg score. Fastenberg, D. M. et al. (1982) Am. J. Ophthalmol. 93:565. The grading is as follows: 0; no abnormality, 1; vitreous strand, 2; traction of the retina, 3; partial retinal detachment (less than 2 quadrant), 4; extended (more than 2 quadrant) but not total retinal detachment, 5; total retinal detachment. All surgeries were performed under aseptic conditions and pursuant to the regulation of the ARVO Statement for the Use of Animals in Ophthalmic and Vision Research. Only the left eye of each rabbit was used for the experiments.
An important component of PVR is the traction force that is generated when cells of the epiretinal membrane contract. To test if the signaling enzymes that are required for contraction in the in vitro assays also participate in PVR, the cells expressing the various αPDGFR mutants, described in the previous Examples, were assayed in a rabbit PVR model, described above. In this model, rabbits first undergo gas vitrectomy, and then cells are coinjected with […]. The formation of an epiretinal membrane and retinal detachment is observed in living animals over 28 days.
Briefly, PVR was induced by introducing F cells expressing the indicated αPDGFR into the vitreous of the rabbit eyes. The PVR score was evaluated up to 28 days after the surgery according to the classification described above. The mean value and standard error of the scores in a group were indicated. Each group contained 9 or 10 rabbits; the response to parental F cells was previously reported (Andrews et al., supra), and was included here for comparison purposes.

In data set [3] the test system is PLCγ. In words: Co-immunoprecipitation of PLCγ with αPDGFR mutants in F cells. Format: cell-based, mouse. The following applies: 50 ng/ml PDGF-BB, 5 minutes. The protocol: (§1) The ability of the αPDGFR mutants to undergo ligand dependent tyrosine phosphorylation and to associate with signaling enzymes was then tested. F cells expressing various αPDGFR mutants were grown to subconfluence and serum starved overnight. Cells were either left resting (−) or stimulated with 50 ng/ml PDGF-BB (+) for 5 minutes, and lysed. The αPDGFR was immunoprecipitated with αPDGFR antibody, as described above, and the resulting immunoprecipitates were resolved by 7.5% SDS-PAGE and transferred onto Immobilon. The segment of the blot containing the αPDGFR was first blotted with anti-phosphotyrosine antibodies, then stripped and reprobed with an anti-αPDGFR antibody. Portions of the membrane that contained the proteins of the appropriate molecular mass were immunoblotted for PLCγ, the regulatory subunit of PI3K (p85), or SHP-2. Crude rabbit anti-p85 antibody is from Dr. A. Toker (Beth Israel Hospital/Harvard Medical School, Boston, Mass.). The monoclonal antibodies against PLCγ and SHP-2 were purchased from Upstate Biotechnology Inc.

Data set [4] has as its system SHP-2. The data set is described as follows: Co-immunoprecipitation of SHP-2 with αPDGFR mutants in F cells. Format: cell-based, mouse. Particulars: 50 ng/ml PDGF-BB, 5 minutes. As to the method:
as §1

Data set [5] has as its system GST-PLCγ. The data set is described as follows: In vitro kinase assay of immunoprecipitated mutant αPDGFRs with exogenous substrate. The data set is classed as biochemical. Particulars: 292 immunoprecipitates, [32P]-γ ATP, 30° C., 5 min. As to the method: Mutant αPDGFRs were selectively immunoprecipitated with the 292 antibody, and samples representing 2×10^5 cells from 292 antibodies were subjected to an in vitro kinase assay. Immunoprecipitates were preincubated with 2 μg of GST protein for 10 min at 0° C., then 2 μg of Glutathione S-transferase fusion phospholipase C-gamma (GST-PLCγ, an exogenous substrate, 10 μCi of γ-[^32P] ATP (DuPont NEN Research Products, Boston, Mass.), and universal kinase buffer (UKB; 20 mM Pipes, pH 7.0, 10 mM MnCl2, 20 μg/ml aprotinin) were added. The samples were incubated at 30° C. for 5 min. The proteins were separated by 7.5% sodium dodecyl sulfate-polyacrylamide gel electrophoresis (SDS-PAGE), the gel was dried, and the radiolabeled protein was detected by autoradiography.

For data set [6], the system named is PI3K (p85). In words: Co-immunoprecipitation of the regulatory subunit of PI3K (p85) with αPDGFR mutants in F cells. The data set is classed as cell-based, mouse. The following applies: 50 ng/ml PDGF-BB, 5 minutes. As to the method:
as §1

Data set [7] deals with PI3K. In words: In vitro PI3K activity assay of αPDGFR immunoprecipitates. The data set is classed as biochemical, mouse. Particulars: immunoprecipitates of F cells ± 50 ng/ml PDGF-BB. The protocol: To measure the PI3K activity that coprecipitated with the PDGFRs, the receptor immunoprecipitates were subjected to an in vitro PI3K kinase assay. Aliquots of the immunoprecipitates used in FIG. 10B were subjected to a PI3K activity assay. This assay detects PI3K that has co-precipitated with the αPDGFR. The PI3K assay was performed as previously described. Kazlauskas, A. et al. (1990) Embo. J. 9:3279. Briefly, immunoprecipitated αPDGFR from approximately 5×10^5 cells were incubated with phosphatidyl inositol in the presence of [^32P]-γATP. The reactions were terminated and the phospholipids were extracted and purified by chromatography. The radioactive product of the reaction (phosphoinositide 3 phosphate) was detected by autoradiography.

The test system of data set [8] is αPDGFR. Particulars: cited from earlier work.
Data set [9] concerns αPDGFR. In words: Ligand-dependent tyrosine phosphorylation of αPDGFR mutants in F cells. Particulars: 50 ng/ml PDGF-BB, 5 minutes. The data set is classed as cell-based, human. The protocol: as §1
For data set [10], the system named is Src family kinases. Particulars: cited from earlier work.

“Also recorded” adds a separate entry of the source.

With “WT αPDGFR: wild type human αPDGFR, SEQ ID NO: 2, expressed in F cells (Fα cells)”, the PDGF-dependent contraction entry in [1] is “contracted”. Also, the “time until PVR after injection of cells” value in data set [2] (rabbit, in vivo) is on record as 2-3 weeks. Also, the “recruitment or activation of PLCγ (Properties)” value in [3] is listed as “coprecipitated”. For the same molecule, in data set [4], the “recruitment of SHP-2 (Properties)” value is on record as “coprecipitated”. Besides, the “kinase activity towards exogenous substrate GST-PLCγ” value in data set [5] is on record as “phosphorylated the exogenous substrate”. Besides, the “recruitment of PI3K / p85 (Properties)” value in data set [6] was “coprecipitated”. In addition, the “PI3K activity coprecipitating with the receptor” value in [7] is given as “coprecipitated”.
On to “F31/42: αPDGFR mutant, Tyr to Phe substitution at 731 and 742”, for which, in [1], the PDGF-dependent contraction entry is reported as “did not respond”. Also, in data set [6], the “recruitment of PI3K / p85 (Properties)” value is recorded as “failed to efficiently associate; also recorded: Fails to recruit PI3K”. For the same molecule, in data set [7], the “PI3K activity coprecipitating with the receptor” value is listed as “did not detectably coprecipitate”.
Take “R627: αPDGFR mutant, Lys to Arg substitution at 627, kinase inactive”: the PDGF-dependent contraction entry in data set [1] was “no contraction”. For the same molecule, the “potential to induce PVR (PVR score)” value in data set [2] was “dramatically less able to cause the disease”. For the same molecule, the “kinase activity of the receptor (Properties)” value in data set [8] is “Kinase inactive”. Moreover, the “recruitment or activation of PLCγ (Properties)” value in data set [3] is reported as “failed to recruit any of these signaling enzymes”. Also, in data set [4], the “recruitment of SHP-2 (Properties)” value was “failed to recruit any of these signaling enzymes”. Moreover, in data set [6], the “recruitment of PI3K / p85 (Properties)” value was “failed to recruit any of these signaling enzymes”. The “PDGF-dependent tyrosine phosphorylation of the receptor” value in data set [9] is given as “not phosphorylated in response to PDGF”.

B1: F7: αPDGFR mutant, Tyr to Phe substitution at 572, 574, 720, 731, 742, 988, and 1018 (protein, UniProt P16234 24-1089, looked up, variant Y572F Y574F Y720F Y731F Y742F Y988F Y1018F)
Platelet-derived growth …: QLSLPSILPNENEKVVQLNSSFSLRCFGESEVSWQYPMSEEESSDVEIRNEENNSGLFVTVLEVSSASAAHTGLYTCYYNHTQTEENELEGRHIYIYVPDPDVAFVPLGMTDYLVIVEDDDSAIIPCRTTDPETPVTLHNSEGVVPASYDSRQGFNGTFTVGPYICEATVKGKKFQTIPFNVYALKATSELDLEMEALKTVYKSGETIVVTCAVFNNEVVDLQWTYPGEVKGKGITMLEEIKVPSIKLVYTLTVPEATVKDSGDYECAARQATREVKEMKKVTISVHEKGFIEIKPTFSQLEAVNLHEVKHFVVEVRAYPPPRISWLKNNLTLIENLTEITTDVEKIQEIRYRSKLKLIRAKEEDSGHYTIVAQNEDAVKSYTFELLTQVPSSILDLVDDHHGSTGGQTVRCTAEGTPLPDIEWMICKDIKKCNNETSWTILANNVSNIITEIHSRDRSTVEGRVTFAKVEETIAVRCLAKNLLGAENRELKLVAPTLRSELTVAAAVLVLLVIVIISLIVLVVIWKQKPRYEIRWRVIESISPDGHEFIFVDPMQLPYDSRWEFPRDGLVLGRVLGSGAFGKVVEGTAYGLSRSQPVMKVAVKMLKPTARSSEKQALMSELKIMTHLGPHLNIVNLLGACTKSGPIYIITEYCFYGDLVNYLHKNRDSFLSHHPEKPKKELDIFGLNPADESTRSFVILSFENNGDFMDMKQADTTQFVPMLERKEVSKYSDIQRSLYDRPASYKKKSMLDSEVKNLLSDDNSEGLTLLDLLSFTYQVARGMEFLASKNCVHRDLAARNVLLAQGKIVKICDFGLARDIMHDSNYVSKGSTFLPVKWMAPESIFDNLYTTLSDVWSYGILLWEIFSLGGTPYPGMMVDSTFYNKIKSGYRMAKPDHATSEVYEIMVKCWNSEPEKRPSFYHLSEIVENLLPGQYKKSYEKIHLDFLKSDHPAVARMRVDSDNAFIGVTYKNEEDKLKDWEGGLDEQRLSADSGFIIPLPDIDPVPEEEDLGKRNRHSSQTSEESAIETGSSSSTFIKREDETIEDIDMMDDIGIDSSDLVEDSFL
Regarding B1, the PDGF-dependent contraction entry in data set [1] is recorded as “no contraction”. In addition, in data set [2], the “potential to induce PVR (PVR score)” value is on record as “dramatically less able to cause the disease”. Further, in data set [8], the “kinase activity of the receptor (Properties)” value is given as “kinase active”. Besides, in data set [3], the “recruitment or activation of PLCγ (Properties)” value is recorded as “failed to recruit any of these signaling enzymes; also recorded: Fails to recruit”. For the same molecule, the “recruitment of SHP-2 (Properties)” value in data set [4] was “failed to recruit any of these signaling enzymes; also recorded: Fails to recruit”. For the same molecule, the “recruitment of PI3K / p85 (Properties)” value in [6] is given as “failed to recruit any of these signaling enzymes; also recorded: Fails to recruit”. The “recruitment or activation of Src family kinases (Properties)” value in [10] is “Fails to recruit”. For the same molecule, the “PDGF-dependent tyrosine phosphorylation of the receptor” value in [9] is recorded as “undergoes modest tyrosine phosphorylation”.
